Measured values: patent US20240124590A1 (ULTRAHUMAN EIGHT, published 2024)
Where a chain is given by its changes, count along the chain named. Blank lines part the entries; values can stand above or below the binder they belong to.

Assays:
[1] = molecular target: T1, human PD1 His tagged (monomeric) (human, UniProt Q15116 25-170, limits assumed); assay: SPR (Biacore), IgG captured, monomeric PD1-His analyte
T1 construct: Soluble monomeric analyte; whole entry named; also called monomeric human PD1; not shown: His tag
Experimental: (§1) Affinity (KD) of purified IgGs was determined via SPR with antigen in-solution on a Biacore 3000 (GE). A mouse anti-human antibody (CH1 specific) was immobilized on a CM5 Sensor Chip to a level of 2000 RU in acetate buffer at pH 4.5 using amine coupling following the Wizard instructions for two channels. One channel was used for background signal correction. The standard running buffer HBS-EP pH 7.4 was used. Regeneration was performed with a single injection of 10 μl of 10 mM Glycine at pH 1.5 at 20 μl/minute. IgG samples were injected for 2 minutes at 50 nM at 30 μl/min followed by and off-rate of 60 seconds. […] The obtained sensorgrams were analysed using the Biacore 3000 evaluation (BIAevaluation) software. The KD was calculated by simultaneous fitting of the association and dissociation phases to a 1:1 Langmuir binding model.
(§2) Biacore analyses of binding affinity was performed for all IgGs to solution-phase, monomeric human and cyno PD1 proteins.

[2] = molecular target: T2, cynomolgus monkey PD1 His tag (monomeric) (cynomolgus monkey, UniProt Q15116 25-170 (human entry), limits assumed); assay: as above
T2 construct: Soluble monomeric analyte; whole entry named; also called monomeric cyno PD1; not shown: His tag
T2 chain: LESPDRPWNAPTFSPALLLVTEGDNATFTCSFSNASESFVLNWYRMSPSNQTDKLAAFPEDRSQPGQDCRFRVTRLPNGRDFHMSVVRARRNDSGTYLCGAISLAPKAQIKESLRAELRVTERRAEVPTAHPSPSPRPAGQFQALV
Experimental: as §1, §2

[3] = molecular target: human PD1 expressed on cells (human, UniProt Q15116 25-288); assay: cell-based or functional assay
[4] = molecular target: T3, recombinant ectodomain of human VEGFR2 (human, UniProt P35968 20-764); assay: direct ELISA
T3 construct: whole entry named

[5] = molecular target: T4, BSA protein (UniProt P02769 25-607); assay: direct ELISA
T4 construct: Negative-control coat of the ELISA

[6] = molecular target: T5, recombinant ectodomain of human FZD5 (human, UniProt Q13467 27-167, limits assumed); assay: direct ELISA
T5 construct: whole entry named
T5 sequence: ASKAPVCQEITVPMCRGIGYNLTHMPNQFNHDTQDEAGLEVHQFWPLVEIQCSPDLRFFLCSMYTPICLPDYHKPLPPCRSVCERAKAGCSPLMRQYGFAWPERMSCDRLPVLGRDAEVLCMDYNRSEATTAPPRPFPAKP

[7] = molecular target: T6, recombinant ectodomain of rhesus VEGFR2 (rhesus); assay: direct ELISA
T6 construct: whole entry named
T6 chain: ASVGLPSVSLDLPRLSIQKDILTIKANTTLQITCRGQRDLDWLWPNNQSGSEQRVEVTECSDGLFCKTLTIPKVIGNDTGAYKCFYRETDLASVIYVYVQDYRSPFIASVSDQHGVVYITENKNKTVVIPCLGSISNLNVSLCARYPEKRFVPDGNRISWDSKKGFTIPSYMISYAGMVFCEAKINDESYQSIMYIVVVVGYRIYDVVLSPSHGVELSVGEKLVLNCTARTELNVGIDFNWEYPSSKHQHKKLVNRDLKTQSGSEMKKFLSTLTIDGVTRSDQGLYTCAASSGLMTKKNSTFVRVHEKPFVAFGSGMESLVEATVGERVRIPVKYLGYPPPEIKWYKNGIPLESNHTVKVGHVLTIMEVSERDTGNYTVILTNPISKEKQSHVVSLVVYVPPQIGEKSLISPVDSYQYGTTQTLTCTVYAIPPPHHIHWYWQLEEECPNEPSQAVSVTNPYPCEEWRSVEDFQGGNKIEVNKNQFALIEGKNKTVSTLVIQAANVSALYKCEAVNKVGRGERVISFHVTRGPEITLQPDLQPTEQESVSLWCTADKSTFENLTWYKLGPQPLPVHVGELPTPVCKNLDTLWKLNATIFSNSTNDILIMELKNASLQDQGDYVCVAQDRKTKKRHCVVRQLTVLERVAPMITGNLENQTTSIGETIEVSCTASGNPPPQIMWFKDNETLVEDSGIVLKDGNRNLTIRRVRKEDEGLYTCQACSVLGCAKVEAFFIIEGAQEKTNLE

[8] = molecular target: T7, biotinylated human PD1-His/AviTag (human, UniProt Q15116 25-170, limits assumed, biotinylated); assay: Alphascreen competition vs IgG1-Mab005 (humanized)
T7 construct: Alphascreen antigen; whole entry named; also called biotinylated monomeric human PD1; not shown: His/AviTag
Experimental: The AlphaScreen assay (Perkin Elmer) was performed in a 25 μl final volume in 384-well white microtiter plates (Greiner). The reaction buffer contained 1×PBS pH 7.3 (Oxoid, Cat. nr. BRO014G) and 0.05% (v/v) Tween® 20 (Sigma, Cat. nr. P9416). Purified IgG samples were titrated in three fold serial dilutions starting at 500 nM final concentration and incubated with biotinylated human PD1-His/AviTag at 0.6 nM final concentration for 20 minutes at room temperature. […] Followed by addition of the Streptavidin Donor beads at 20 μg/ml (final concentration) and incubation for 30 minutes at room temperature. The emission of light was measured in the EnVision multilabel plate reader (Perkin Elmer) and analysed using the EnVision manager software. Values were reported as Counts Per Second (CPS) and corrected for crosstalk.

T4 sequence (P02769 25-607 limits assumed): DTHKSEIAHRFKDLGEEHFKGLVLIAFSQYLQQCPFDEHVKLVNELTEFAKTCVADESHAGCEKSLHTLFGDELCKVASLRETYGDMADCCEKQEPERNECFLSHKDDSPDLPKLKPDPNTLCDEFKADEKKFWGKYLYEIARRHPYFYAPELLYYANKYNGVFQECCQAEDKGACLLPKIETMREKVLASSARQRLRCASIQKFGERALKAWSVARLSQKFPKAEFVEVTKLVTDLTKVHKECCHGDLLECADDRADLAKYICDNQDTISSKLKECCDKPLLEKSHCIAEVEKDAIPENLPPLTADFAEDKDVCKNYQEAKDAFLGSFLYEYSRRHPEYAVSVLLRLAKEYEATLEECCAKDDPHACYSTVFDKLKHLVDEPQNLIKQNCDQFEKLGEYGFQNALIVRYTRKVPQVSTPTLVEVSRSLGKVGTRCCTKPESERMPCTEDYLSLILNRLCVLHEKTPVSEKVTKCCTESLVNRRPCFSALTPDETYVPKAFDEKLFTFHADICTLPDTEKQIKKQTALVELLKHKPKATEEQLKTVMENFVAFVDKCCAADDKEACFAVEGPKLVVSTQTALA
human PD1 expressed on cells, sequence (Q15116 25-288 limits assumed): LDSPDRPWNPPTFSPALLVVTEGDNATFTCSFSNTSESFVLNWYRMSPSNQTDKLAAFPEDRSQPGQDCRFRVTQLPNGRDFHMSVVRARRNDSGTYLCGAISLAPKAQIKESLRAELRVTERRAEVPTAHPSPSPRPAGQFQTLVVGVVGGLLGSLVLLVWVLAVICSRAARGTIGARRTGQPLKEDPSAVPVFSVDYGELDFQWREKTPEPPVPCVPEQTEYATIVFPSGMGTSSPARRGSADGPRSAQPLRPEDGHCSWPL
T7 sequence (Q15116 25-170 limits assumed): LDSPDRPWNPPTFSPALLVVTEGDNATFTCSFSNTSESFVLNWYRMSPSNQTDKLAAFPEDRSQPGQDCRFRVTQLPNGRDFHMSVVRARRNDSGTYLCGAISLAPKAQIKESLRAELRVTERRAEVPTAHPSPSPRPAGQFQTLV
T1 sequence (Q15116 25-170 limits assumed): as above

Kd [1]: 1.47 nM
koff [1]: 0.00028 s⁻¹
kon [1]: 190000 M⁻¹ s⁻¹
Kd [2]: 3.4 nM
koff [2]: 0.00052 s⁻¹
kon [2]: 150000 M⁻¹ s⁻¹
EC50 (ng/ml), IgG1null blockade of human PD1/PD-L1 [3]: 127 ng/mL
binding result [4]: no binding
binding result [5]: no binding
binding result [6]: no binding
binding result [7]: no binding
IC50 [8]: 2.36 nM
B1: IgG1-08 (antibody, V domains shown)
VH: EVQLVESGGGLVQPGGSLRLSCAASGFTFSSYLMSWVRQAPGKGLEWVATISGGGSEKYYVDSVKGRFTISRDNAKNSLYLQMNSLRAEDTAVYYCARQLYGFDYWGQGTLVTVSS
VL: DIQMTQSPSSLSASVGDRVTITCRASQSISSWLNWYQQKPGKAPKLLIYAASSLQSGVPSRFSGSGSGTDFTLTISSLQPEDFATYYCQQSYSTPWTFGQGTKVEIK
notes: Designer; human IgG1null + Ckappa; also called Antibody IgG1-08; MAB08

Kd [1]: 1.3 nM
koff [1]: 0.00025 s⁻¹
kon [1]: 200000 M⁻¹ s⁻¹
Kd [2]: 4.9 nM
koff [2]: 0.00062 s⁻¹
kon [2]: 130000 M⁻¹ s⁻¹
EC50 (ng/ml), IgG1null blockade of human PD1/PD-L1 [3]: 224 ng/mL
binding result [4]: no binding
binding result [5]: no binding
binding result [6]: no binding
binding result [7]: no binding
IC50 [8]: 2.63 nM
B2: IgG1-06D02 (antibody, V domains shown)
VH: B1 VH with K58T
VL: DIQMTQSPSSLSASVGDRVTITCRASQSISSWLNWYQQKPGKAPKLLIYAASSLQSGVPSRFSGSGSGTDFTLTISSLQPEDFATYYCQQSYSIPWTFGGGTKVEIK
notes: Library-derived; human IgG1null + Ckappa; also called Clone 06D02

Kd [1]: 1.91 nM
koff [1]: 0.00029 s⁻¹
kon [1]: 150000 M⁻¹ s⁻¹
Kd [2]: 2.8 nM
koff [2]: 0.00033 s⁻¹
kon [2]: 120000 M⁻¹ s⁻¹
EC50 (ng/ml), IgG1null blockade of human PD1/PD-L1 [3]: 156 ng/mL
binding result [4]: no binding
binding result [5]: no binding
binding result [6]: no binding
binding result [7]: no binding
IC50 [8]: 1.66 nM
B3: IgG1-05 (antibody, V domains shown)
VH: B1 VH with L100V, G102Y
VL: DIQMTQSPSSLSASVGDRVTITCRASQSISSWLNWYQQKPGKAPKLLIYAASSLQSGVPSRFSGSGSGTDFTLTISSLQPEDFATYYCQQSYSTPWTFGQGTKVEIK
notes: Designer; human IgG1null + Ckappa; also called Antibody IgG1-05
